Tests used:
[1] = target: CCR5 (Homo sapiens (Human)) (UniProt P51681)
[2] = target: CCR5 (Homo sapiens (Human)) (UniProt P51681); remark: listed apart in the source
[3] = target: CCR5 (Homo sapiens (Human)) (UniProt P51681); remark: listed apart in the source

Substance | Mean Relative Potency (IC50 in the envelope-mediated cell fusion assay, relative to AOP-RANTES = 100) (relative to AOP-RANTES = 100) [1] | inhibition of envelope-mediated cell fusion [2] [% inhibition] | Average Infectivity IC50 (cell-free viral infection assay) [3] [nM] | Cell-Fusion Result For Comparison (IC50) [3] [nM]
NNY-P2Thz-Y3Chg-RANTES (4-68) (from UniProt P13501) (ligand) | 2 | > 50 |  | 
NNY-P2Thz-Y3tButA-RANTES (4-68) (from UniProt P13501) (ligand) | 4 | > 50 |  | 
NNY-P-Y3Chg-RANTES (4-68) (from UniProt P13501) (ligand) | 7 | > 50 | 0.012 | 0.026
NNY-P-Y3tbuA-RANTES (4-68) (from UniProt P13501) (ligand) | 7 | > 50 | 0.014 | 0.038

From US20040077835A1
